Test results reported in publication PMC4153629.

Experiments:
[1] = molecular target: GH family 10 endo-β-1,4-xylanase Xyn10A from Caldicellulosiruptor lactoaceticus 6A (Caldicellulosiruptor lactoaceticus 6A); assay: SEC; Superdex 200 column (33 mL elution volume), 50 mM sodium citrate, 150 mM NaCl, pH 6.0, 0.5 mL/min; apparent Mw from a calibration curve of log (Mw) vs. elution volume; self-association (homodimer)
[2] = molecular target: GH67 α-glucuronidase Agu67A from Caldicellulosiruptor lactoaceticus 6A (Caldicellulosiruptor lactoaceticus 6A); assay: as above

stoichiometry N [1] | stoichiometry N [2] | Substance
2 |  | GH family 10 endo-β-1,4-xylanase Xyn10A from Caldicellulosiruptor lactoaceticus 6A (enzyme)
 | 2 | GH67 α-glucuronidase Agu67A from Caldicellulosiruptor lactoaceticus 6A (enzyme)
